± gives the standard error. Variants at the floor of the assay were thinned out.
B1: glmS ribozyme (parent)
chain: AUAAAAGCGCCAGAACUACAGAAAUGUAGUUGACGAGGAGGAGGUUUAUCGAAUUUUCGGCGGAUGCCUCCAAA

Tests used:
Conditions in all cases: with glucosamine-6-phosphate
glucosamine-6-phosphate [1] = variants of: B1; assay: self-cleavage kobs at 160 uM GlcN6P; higher = faster cleavage; RNA array
How it was run: (§1)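 Using a hybridised Cy3 probe at 37 °C, barcoded ribozyme variants transcribed in situ by E. coli RNA polymerase on sequenced MiSeq chips were monitored across tiles imaged over ~14 h. The flow contained glucosamine-6-phosphate from 40 μM to 10 mM in HEPES/KCl/Mg(OAc)2 buffer. Signals were normalised to baseline and to non-cleaving reference variants before per-tile medians were fit to one- or two-exponential decays to yield kobs. Weighted Michaelis–Menten fits across concentrations gave kcat and KM.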

glucosamine-6-phosphate [2] = variants of: B1; assay: self-cleavage kobs at 640 uM GlcN6P; higher = faster cleavage; RNA array
How it was run: as §1

glucosamine-6-phosphate [3] = variants of: B1; assay: self-cleavage kobs at 2500 uM GlcN6P; higher = faster cleavage; RNA array
How it was run: as §1

glucosamine-6-phosphate [4] = variants of: B1; assay: self-cleavage kobs at 10000 uM GlcN6P; higher = faster cleavage; RNA array
How it was run: as §1

Row | Variant | self-cleavage kobs at 160 uM GlcN6P (glucosamine-6-phosphate [1]) | self-cleavage kobs at 640 uM GlcN6P (glucosamine-6-phosphate [2]) | self-cleavage kobs at 2500 uM GlcN6P (glucosamine-6-phosphate [3]) | self-cleavage kobs at 10000 uM GlcN6P (glucosamine-6-phosphate [4])
1 | C34G C58U A64C C67G | 4.06e-05 ± 2e-05 s⁻¹ | 7.23e-05 ± 2.6e-05 s⁻¹ | – | –
2 | G44U C50A | < 1e-05 s⁻¹ | < 1e-05 s⁻¹ | < 1e-05 s⁻¹ | < 1e-05 s⁻¹
3 | G37U A42U A53G | < 1e-05 s⁻¹ | – | < 1e-05 s⁻¹ | –
4 | C19A U65A | 0.000107 ± 4.8e-05 s⁻¹ | – | 0.00137 ± 0.00051 s⁻¹ | –
5 | A15G A33G A48G G60U | – | < 1e-05 s⁻¹ | – | –
6 | G7U C70A | – | 0.000596 ± 0.00023 s⁻¹ | – | –
7 | G66A U69G | 8.36e-05 ± 2.3e-05 s⁻¹ | 0.000427 ± 0.0001 s⁻¹ | 0.00012 ± 2.1e-05 s⁻¹ | 4.74e-05 ± 1.7e-05 s⁻¹
8 | A36U U55C | < 1e-05 s⁻¹ | < 1e-05 s⁻¹ | – | –
9 | U57C C58U | < 1e-05 s⁻¹ | – | – | –
10 | A42G A48G U54A | < 1e-05 s⁻¹ | – | – | –
11 | U30C U31G C50G C70G | 0.000158 ± 4.4e-05 s⁻¹ | 0.000289 ± 0.0001 s⁻¹ | 0.00026 ± 5.8e-05 s⁻¹ | –
12 | C11A A12U A36C A48C G60U G62A | – | < 1e-05 s⁻¹ | < 1e-05 s⁻¹ | –
13 | A33G G37A A39C G63C C68G | < 1e-05 s⁻¹ | < 1e-05 s⁻¹ | – | –
14 | C10G A36C G60A | – | < 1e-05 s⁻¹ | – | –
15 | C50U A53U C70G | – | 5.27e-05 ± 2.4e-05 s⁻¹ | – | –
16 | G9C A15U G43U | < 1e-05 s⁻¹ | < 1e-05 s⁻¹ | < 1e-05 s⁻¹ | –
17 | A52C C67U C71G | – | 5.68e-05 ± 2.4e-05 s⁻¹ | 9.24e-05 ± 3.5e-05 s⁻¹ | –
18 | U45C U47G G51U | – | < 1e-05 s⁻¹ | – | –
19 | U69G C70G | 3.61e-05 ± 8.8e-06 s⁻¹ | 0.000255 ± 0.00013 s⁻¹ | 3.6e-05 ± 9.1e-06 s⁻¹ | –
20 | A14C A39G C70U | – | 0.000886 ± 0.00029 s⁻¹ | – | –

Row | Variant | self-cleavage kobs at 160 uM GlcN6P (glucosamine-6-phosphate [1]) | self-cleavage kobs at 640 uM GlcN6P (glucosamine-6-phosphate [2]) | self-cleavage kobs at 2500 uM GlcN6P (glucosamine-6-phosphate [3]) | self-cleavage kobs at 10000 uM GlcN6P (glucosamine-6-phosphate [4])
21 | A6G G9U A64G | – | < 1e-05 s⁻¹ | – | –
22 | C10U A42G A53U | < 1e-05 s⁻¹ | – | – | –
23 | G7C C8G A52G | < 1e-05 s⁻¹ | < 1e-05 s⁻¹ | < 1e-05 s⁻¹ | –
24 | U31G C68G | 0.000192 ± 8.2e-05 s⁻¹ | – | 6.11e-05 ± 1.1e-05 s⁻¹ | 3.16e-05 ± 8.9e-06 s⁻¹
25 | G37U G51C A52U G63U | < 1e-05 s⁻¹ | – | – | –
26 | A6C C8G G35C C58U C67G | < 1e-05 s⁻¹ | – | < 1e-05 s⁻¹ | –
27 | G7C C10G C70U | < 1e-05 s⁻¹ | – | – | < 1e-05 s⁻¹
28 | G9A A14C A36G G37C A39U | – | < 1e-05 s⁻¹ | – | –
29 | A12G G13U G62A | – | < 1e-05 s⁻¹ | – | –
30 | A6U A33G U54A | – | < 1e-05 s⁻¹ | – | –
31 | A48G G66C | < 1e-05 s⁻¹ | < 1e-05 s⁻¹ | < 1e-05 s⁻¹ | < 1e-05 s⁻¹
32 | G29A U45G | – | 0.000156 ± 4.7e-05 s⁻¹ | 0.000503 ± 0.00012 s⁻¹ | –
33 | G7C C58G | – | < 1e-05 s⁻¹ | – | –
34 | A6G A36G G44U C61U | < 1e-05 s⁻¹ | < 1e-05 s⁻¹ | < 1e-05 s⁻¹ | –
35 | C16G U46A C50A U69G | 0.000562 ± 0.00018 s⁻¹ | – | – | –
36 | G9A A12U A33C G62U | < 1e-05 s⁻¹ | – | – | –
37 | C11G U47G | < 1e-05 s⁻¹ | – | < 1e-05 s⁻¹ | < 1e-05 s⁻¹
38 | A36C A42G | < 1e-05 s⁻¹ | – | < 1e-05 s⁻¹ | < 1e-05 s⁻¹
39 | A6U A48C U57G | < 1e-05 s⁻¹ | – | – | –
40 | A6C G32U A64G C67U | < 1e-05 s⁻¹ | < 1e-05 s⁻¹ | < 1e-05 s⁻¹ | –

Row | Variant | self-cleavage kobs at 160 uM GlcN6P (glucosamine-6-phosphate [1]) | self-cleavage kobs at 640 uM GlcN6P (glucosamine-6-phosphate [2]) | self-cleavage kobs at 2500 uM GlcN6P (glucosamine-6-phosphate [3]) | self-cleavage kobs at 10000 uM GlcN6P (glucosamine-6-phosphate [4])
41 | A36G G41A G63U | < 1e-05 s⁻¹ | < 1e-05 s⁻¹ | – | –
42 | A12U U31G U69C | 0.000336 ± 6.5e-05 s⁻¹ | 0.000408 ± 0.00019 s⁻¹ | 0.0026 ± 0.00042 s⁻¹ | –
43 | C34U C58G U65G | – | < 1e-05 s⁻¹ | – | –
44 | A42C U45G | < 1e-05 s⁻¹ | < 1e-05 s⁻¹ | – | –
45 | C16A G38C C68U | < 1e-05 s⁻¹ | < 1e-05 s⁻¹ | – | –
46 | G37A G51A C71A | < 1e-05 s⁻¹ | – | < 1e-05 s⁻¹ | –
47 | C8A G13U | < 1e-05 s⁻¹ | < 1e-05 s⁻¹ | < 1e-05 s⁻¹ | < 1e-05 s⁻¹
48 | C10U A15G G37A G38C A53U | – | < 1e-05 s⁻¹ | – | –
49 | A15C A36U A39G | < 1e-05 s⁻¹ | < 1e-05 s⁻¹ | < 1e-05 s⁻¹ | < 1e-05 s⁻¹
50 | A14C A15C A48U | < 1e-05 s⁻¹ | – | – | –
51 | A6U A14C G51A | < 1e-05 s⁻¹ | < 1e-05 s⁻¹ | – | –
52 | G7U C67A | < 1e-05 s⁻¹ | < 1e-05 s⁻¹ | – | –
53 | A14U C16A G66A | – | 3.92e-05 ± 1.7e-05 s⁻¹ | 0.000107 ± 2.6e-05 s⁻¹ | –
54 | G63A C70G C71G | 5.57e-05 ± 1.4e-05 s⁻¹ | 4.83e-05 ± 1.9e-05 s⁻¹ | – | –
55 | A14U A36U U69G | – | 0.000169 ± 6.2e-05 s⁻¹ | 0.000194 ± 5.8e-05 s⁻¹ | 5.55e-05 ± 1.8e-05 s⁻¹
56 | A36G G40A G44A U46G G51C | < 1e-05 s⁻¹ | – | < 1e-05 s⁻¹ | –
57 | C34A C58A | < 1e-05 s⁻¹ | < 1e-05 s⁻¹ | < 1e-05 s⁻¹ | < 1e-05 s⁻¹
58 | C11G A36C G41C G60A | < 1e-05 s⁻¹ | < 1e-05 s⁻¹ | < 1e-05 s⁻¹ | –

Reference: the supplement of paper PMC7125110
